Like-named read-outs stand apart in the source and are kept apart here.
Tests used:
Assay in all cases: BLI
[1] = target: T1, SARS-CoV-2 spike ectodomain (UniProt P0DTC2 14-1213)
[2] = target: T1, SARS-CoV-2 spike ectodomain; remark: listed apart in the source
[3] = target: T1, SARS-CoV-2 spike ectodomain; remark: listed apart in the source

B1: Fab 483 (Fab, V domains shown)
VH: QVQLQESGPGLVKPSETLSLTCTVSGGSISSYYWSWIRQPPGKGLEWIGYIYYSGSTNYNPSLKSRVTISVDTSKNQFSLKLSSVTAADTAVYYCARAPEEKSSEIGELVGWGWFDPWGQGTLVTVSS
VL: not shown
Kd [1]: 23.1 nM

B2: Fab 494 (Fab, V domains shown)
VH: EVQLVESGGGLVQPGGSLRLSCAASGFTVSSNYMSWVRQAPGKGLEWVSVIYSGGSTFYADSVKGRFTISRDNSKNTLYLQMNSLRAEDTAVYYCARDSGDQLLDYWGQGTLVTVSS
VL: DIQLTQSPSFLSASVGDRVTITCRASQGISSYLAWYQQKPGKAPKLLIYAASTLQSGVPSRFSGSGSGTEFTLTISSLQPEDFATYYCQQLNSYPPFTFGPGTKVDIKR
Kd [2]: 5.9 nM

B3: Fab 419 (Fab, V domains shown)
VH: QVQLVQSGAEVKKPGASVKVSCKASGYTFTSYYMHWVRQAPGQGLEWMGIINPSGGSTSYAQKFQGRVTMTRDTSTSTVYMELSSLRSEDTAVYYCARDWTQSSGYDYYYGLDVWGQGTTVTVSS
VL: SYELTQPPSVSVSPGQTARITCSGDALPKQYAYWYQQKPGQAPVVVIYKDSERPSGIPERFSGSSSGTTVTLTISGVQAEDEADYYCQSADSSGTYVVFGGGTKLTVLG
Kd [3]: 365 nM

— patent US20210292393A1 (published 2021)
